In patent publication US20240199758A1, “METHOD FOR ALLOWING IMMUNE CELLS INFILTRATION IN TUMORS” (Alethia Biotherapeutics Inc., priority 2021, published 2024):
“And” between values parts separate entries of the source, which are not always exact repeats. Equal values may be shown once. “Also recorded” adds a separate entry of the source.

What was measured:
[1] = molecular target: T1, sCLU (Macaca mulatta, UniProt F6S885); test: sCLU serum concentrations after single dose administration; format: in vivo; conditions: Rhesus monkeys
T1 construct: from tissue; host or cells: serum of Rhesus monkeys (in vivo)
T1 sequence (F6S885 22-448): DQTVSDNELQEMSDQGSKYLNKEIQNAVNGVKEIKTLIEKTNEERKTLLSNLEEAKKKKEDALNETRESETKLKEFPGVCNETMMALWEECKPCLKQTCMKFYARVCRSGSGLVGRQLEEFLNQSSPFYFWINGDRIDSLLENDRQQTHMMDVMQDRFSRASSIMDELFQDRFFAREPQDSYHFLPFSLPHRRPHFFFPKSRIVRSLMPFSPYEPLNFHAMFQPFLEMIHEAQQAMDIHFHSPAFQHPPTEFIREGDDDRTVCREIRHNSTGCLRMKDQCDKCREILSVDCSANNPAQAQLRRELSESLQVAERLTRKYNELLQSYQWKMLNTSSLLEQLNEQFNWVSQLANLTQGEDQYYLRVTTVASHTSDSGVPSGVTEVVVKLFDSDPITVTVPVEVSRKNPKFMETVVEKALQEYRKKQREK
Text: (§1) There was an approximate 70% increase in systemic exposure following repeated dosing from Day 1 to Day 26 which is consistent with the elimination half-life of AB-16B5 and the dosing intervals. […] The sCLU concentrations were generally back to their baseline levels after 3 to 5 days. The concurrent decrease in sCLU concentrations immediately following dosing with AB-16B5 is consistent with an antigen-sink phenomenon.

[2] = test system: vimentin; test: Phase I study: immunohistochemistry on paired tumor biopsies, vimentin; format: in vivo, human; conditions: Subject 007, advanced gastric cancer
Experimental: Immunohistochemistry studies were conducted on paired tumor biopsies to determine if the treatment with AB-16B5 was associated with a reacquisition of an epithelial phenotype.

[3] = Phase I study AB-16B5-101: safety and tolerability
Experimental: The dose escalation was performed using 2 dose escalation schemes; the accelerated dose escalation scheme and the standard dose escalation scheme. Only 1 subject was enrolled in each of the first 2 cohorts as per protocol (accelerated dose escalation scheme).
Subjects received AB-16B5 by a 60-minute IV infusion once weekly on Days 1, 8 and 15 of each cycle of treatment.

[4] = Non-clinical pharmacokinetics, single and repeat-dose studies in rats; format: in vivo, Sprague-Dawley rats
Text: as §1

[5] = test system: frozen tissues from Rhesus monkey; test: Tissue cross-reactivity study, Rhesus monkey tissues; format: binding; conditions: Rhesus monkey tissue panel, 2 and 10 μg/mL
Experimental: (§2) In addition, a tissue cross-reactivity study was conducted to determine the potential cross-reactivity of AB-16B5 with frozen tissues from human, Rhesus monkey, and Sprague-Dawley rat tissues.

[6] = test system: frozen tissues from human; test: Tissue cross-reactivity study, human tissues; format: binding; conditions: human tissue panel, 2 and 10 μg/mL
Experimental: as §2

[7] = test system: CA 15-3, CA-125, CA 19-9, CEA, LDH and PSA; test: Phase I study: circulating tumor biomarkers; format: in vivo, human
Experimental: Several well-established circulating biomarkers were evaluated to monitor the response to therapy. They included CA 15-3, CA-125, CA 19-9, CEA, LDH and PSA.

[8] = Non-clinical pharmacokinetics, single and repeat-dose studies in monkeys; format: in vivo, Rhesus monkeys
Text: as §1

[9] = Non-clinical toxicity, weekly administration in monkeys
[10] = rhesus monkey, in vivo
[11] = test system: frozen Sprague-Dawley rat tissues; test: Tissue cross-reactivity study, Sprague-Dawley rat tissues; format: binding; conditions: Sprague-Dawley rat tissue panel, 2 and 10 μg/mL
Experimental: as §2

[12] = test system: advanced solid malignancy; test: Phase I study AB-16B5-101: tumor response (RECIST) and best overall response; format: in vivo, human
[13] = Phase I study AB-16B5-101: plasma pharmacokinetics (non-compartmental analysis); format: in vivo, human; conditions: for AUC 0-t / Cmax / Thalf: mean; for AUC 0-t / Cmax / Thalf / Tmax: plasma; for Tmax: median;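 for AUC 0-t: ng·h/mL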
Text: Plasma PK parameters for AB-16B5 were derived from the concentration-time profiles following the first dose of Cycle 1 and the first dose of Cycle 2 using a non-compartmental analysis (NCA) with Phoenix WinNonlin.

[14] = Subject 001, Pancreatic, 1.5 mg/kg, 2 total cycles
[15] = Subject 002, Endometrium, 3.0 mg/kg, 4 total cycles
[16] = Subject 003, Soft Tissue Sarcoma, 6.0 mg/kg, 2 total cycles
[17] = Subject 005, Prostate, 6.0 mg/kg, 2 total cycles
[18] = Subject 010, Colorectal, 12.0 mg/kg, 4 total cycles
[19] = Subject 012, Breast, 12.0 mg/kg, 2 total cycles
[20] = Subject 013, Prostate, 12.0 mg/kg, 2 total cycles
[21] = Subject 014, Vulvar Melanoma, 12.0 mg/kg, 2 total cycles

AB-16B5: humanized IgG2 monoclonal antibody targeting sCLU for the inhibition of cancer-associated EMT; light chain SEQ ID NO:11, heavy chain SEQ ID NO:12
sCLU serum concentrations following dosing [1]: decreased significantly | vimentin expression after treatment [2]: loss of vimentin expression | dose-related trend in the incidence of AEs ([3]; 1.5 to 12.0 mg/kg): no dose-related trend | dose-limiting toxicity ([3]; 1.5 to 12.0 mg/kg once weekly, 15 subjects): No dose-limiting toxicity was observed; also recorded: No dose-limiting toxicities were identified | subjects reporting SAEs ([3]; 5 of 15 subjects): 33% | AEs of Grade 3 to 5 ([3]; 15 subjects): 12 | number of SAEs ([3]; 15 subjects): 6 and 5 | subjects reporting AEs of Grade 3 to 5 ([3]; 15 subjects): 8 subjects | total AEs reported ([3]; 15 subjects, all causalities): 167 | safety and tolerability ([3]; 60-minute IV weekly infusion, doses up to 12 mg/kg): safe and well tolerated | AEs of Grade 3 to 5 related to AB-16B5 ([3]; Grade 3 infusion related reaction and Grade 3 rash): 2 | deaths ([3]; Subjects 004 and 014, associated with progression of the disease): Two deaths were reported | grade of drug-related AEs ([3]; in vivo): mainly of Grade 1 or 2 | most frequently reported AEs (all causalities) ([3]; in vivo): nausea, abdominal pain, back pain, vomiting, chills, dyspnea, constipation and pruritus | most frequently reported AEs related to AB-16B5 ([3]; in vivo): nausea, pruritus, headache and rash | relation of SAEs to AB-16B5 ([3]; in vivo): All SAEs were considered unrelated to AB-16B5; also recorded: none of which were judged related to the study treatment | AEs related (possibly, probably or definitely) to AB-16B5 ([3]; out of 167 AEs): 68 | subjects who discontinued the study due to an adverse event ([3]; two subjects (004 and 011)): 13% | systemic exposure over 24 hours versus dose [4]: increased with increasing dose levels in a dose proportional manner | increase in systemic exposure following repeated dosing ([4]; Day 1 to Day 26): ~70% | peak serum AB-16B5 concentrations ([4]; infusion, single and repeat-dose): reached shortly after the start of infusion | AB-16B5 staining of tissue elements [5]: observed in a number of tissue elements | membrane staining [5]: no membrane staining was observed | AB-16B5 staining of tissue elements [6]: observed in a number of tissue elements | membrane staining [6]: no membrane staining was observed | level of CEA ([7]; circulating): remained stable or decreased in few patients | tumor biomarker levels ([7]; circulating CA 15-3, CA-125, CA 19-9, CEA, LDH, PSA, correlated with disease progression): increased over time | systemic exposure versus dose ([8]; monkeys): increased with increasing dose levels in a generally greater than dose proportional manner | peak serum AB-16B5 concentrations ([8]; monkeys, infusion, single and repeat-dose): reached shortly after the start of infusion | systemic exposure once weekly versus twice weekly ([8]; monkeys, repeated dosing): no notable differences in systemic exposure | accumulation for AUC0-72 ([8]; repeated dosing): a lower extent of accumulation was observed | drug accumulation in terms of Cmax ([8]; repeated dosing): no evidence of drug accumulation | mean albumin, globulin, A/G and phosphorus levels ([9]; monkeys, 20, 60 and/or 100 mg/kg): Slight changes | NOAEL ([9]; monkeys, weekly administration): 100 mg/kg/dose | emesis during infusion [10]: Few episodes of emesis | signs of overt toxicity [10]: did not result in any signs of overt toxicity | treatment-related effects on body weight, ophthalmology, electrocardiography and organ weight [10]: no treatment-related effects | animals with hepatocellular vacuolation in the liver ([10]; 100 mg/kg): 2 animals | AB-16B5 staining of tissue elements [11]: observed in a number of tissue elements | membrane staining [11]: no membrane staining was observed | subjects with best overall response progressive disease (PD) ([12]; RECIST-evaluable population): 43% | Best Overall Response [12, 14]: PD (progressive disease (PD)) | Tumor Response at Last Assessment: Non-Target Lesions [12, 14]: PD (New | Tumor Response at Last Assessment: Target Lesions [12, 14]: PD (progressive disease (PD)) | Tumor Response at Last Assessment: Non-Target Lesions [12, 15]: Non-CR/ | Tumor Response at Last Assessment: Target Lesions [12, 15]: PD (progressive disease (PD)) | Best Overall Response [12, 16]: PD (progressive disease (PD)) | Tumor Response at Last Assessment: Non-Target Lesions [12, 16]: PD (New | Tumor Response at Last Assessment: Non-Target Lesions ([12]; Subject 004, Thyroid, 6.0 mg/kg, 17 total cycles): Non-CR/ | Best Overall Response [12, 17]: PD (progressive disease (PD)) | Tumor Response at Last Assessment: Non-Target Lesions [12, 17]: Non-CR/ | Tumor Response at Last Assessment: Target Lesions [12, 17]: PD (progressive disease (PD)) | Tumor Response at Last Assessment: Non-Target Lesions ([12]; Subject 006, Breast, 9.0 mg/kg, 3 total cycles): Non-CR/ | Tumor Response at Last Assessment: Non-Target Lesions ([12]; Subject 007, Gastric, 9.0 mg/kg, 8 total cycles): PD (New | Tumor Response at Last Assessment: Non-Target Lesions ([12]; Subject 008, Thyroid, 9.0 mg/kg, 4 total cycles): PD (New | Tumor Response at Last Assessment: Non-Target Lesions ([12]; Subject 009, Lung, 12.0 mg/kg, 6 total cycles): PD (New | Tumor Response at Last Assessment: Non-Target Lesions [12, 18]: PD (New | Tumor Response at Last Assessment: Target Lesions [12, 18]: PD (progressive disease (PD)) | Best Overall Response [12, 19]: PD (progressive disease (PD)) | Tumor Response at Last Assessment: Non-Target Lesions [12, 19]: PD (progressive disease (PD)) | Best Overall Response [12, 20]: PD (progressive disease (PD)) | Tumor Response at Last Assessment: Non-Target Lesions [12, 20]: PD (New | Best Overall Response [12, 21]: PD (progressive disease (PD)) | Tumor Response at Last Assessment: Non-Target Lesions [12, 21]: PD (New | Tumor Response at Last Assessment: Non-Target Lesions ([12]; Subject 015, Ovarian Cancer, 12.0 mg/kg, 4 total cycles): PD (New | time on treatment with stable disease (SD) with clinical benefit ([12]; patient with advanced gastric cancer): 24 weeks | duration of SD ([12]; patient with follicular thyroid cancer): ~1 year | AUC 0-t ([13]; Cycle 1, 1.5 mg/kg (N = 1)): 230,321 ng * h/mL | Cmax ([13]; Cycle 1, 1.5 mg/kg (N = 1)): 17,958 ng/mL | Thalf ([13]; Cycle 1, 1.5 mg/kg (N = 1)): 9.35 h | Tmax ([13]; Cycle 1, 1.5 mg/kg (N = 1)): 1.17 h | AUC 0-t ([13]; Cycle 1, 3.0 mg/kg (N = 1)): 645,602 ng * h/mL | Cmax ([13]; Cycle 1, 3.0 mg/kg (N = 1)): 50,736 ng/mL | Thalf ([13]; Cycle 1, 3.0 mg/kg (N = 1)): 7.39 h | Tmax ([13]; Cycle 1, 3.0 mg/kg (N = 1)): 1.08 h | AUC 0-t ([13]; Cycle 1, 6.0 mg/kg (N = 3)): 1,357,773 ng * h/mL | Cmax ([13]; Cycle 1, 6.0 mg/kg (N = 3)): 117,663 ng/mL | Thalf ([13]; Cycle 1, 6.0 mg/kg (N = 3)): 6.99 h | Tmax ([13]; Cycle 1, 6.0 mg/kg (N = 3)): 1.00 h | AUC 0-t ([13]; Cycle 1, 9.0 mg/kg (N = 3)): 2,083,091 ng * h/mL | Cmax ([13]; Cycle 1, 9.0 mg/kg (N = 3)): 162,103 ng/mL | Thalf ([13]; Cycle 1, 9.0 mg/kg (N = 3)): 10.78 h | Tmax ([13]; Cycle 1, 9.0 mg/kg (N = 3)): 2.00 h | AUC 0-t ([13]; Cycle 1, 12.0 mg/kg (N = 7)): 4,045,786 ng * h/mL | Cmax ([13]; Cycle 1, 12.0 mg/kg (N = 7)): 256,977 ng/mL | Thalf ([13]; Cycle 1, 12.0 mg/kg (N = 7)): 11.99 h | Tmax ([13]; Cycle 1, 12.0 mg/kg (N = 7)): 1.12 h | increase of mean Cmax and AUC0-t with the dose ([13]; Cycle 1, dose range of 3.0 to 12.0 mg/kg): dose proportional | AUC 0-t ([13]; Cycle 2, 1.5 mg/kg (N = 1)): 188,584 ng * h/mL | Cmax ([13]; Cycle 2, 1.5 mg/kg (N = 1)): 15,662 ng/mL | Thalf ([13]; Cycle 2, 1.5 mg/kg (N = 1)): 7.97 h | Tmax ([13]; Cycle 2, 1.5 mg/kg (N = 1)): 1.00 h | AUC 0-t ([13]; Cycle 2, 3.0 mg/kg (N = 1)): 688,934 ng * h/mL | Cmax ([13]; Cycle 2, 3.0 mg/kg (N = 1)): 61,466 ng/mL | Thalf ([13]; Cycle 2, 3.0 mg/kg (N = 1)): 6.82 h | Tmax ([13]; Cycle 2, 3.0 mg/kg (N = 1)): 1.05 h | AUC 0-t ([13]; Cycle 2, 6.0 mg/kg (N = 3)): 1,351,156 ng * h/mL | Cmax ([13]; Cycle 2, 6.0 mg/kg (N = 3)): 120,466 ng/mL | Thalf ([13]; Cycle 2, 6.0 mg/kg (N = 3)): 7.70 h | Tmax ([13]; Cycle 2, 6.0 mg/kg (N = 3)): 1.03 h | AUC 0-t ([13]; Cycle 2, 9.0 mg/kg (N = 3)): 2,459,988 ng * h/mL | Cmax ([13]; Cycle 2, 9.0 mg/kg (N = 3)): 163,840 ng/mL | Thalf ([13]; Cycle 2, 9.0 mg/kg (N = 3)): 13.75 h | Tmax ([13]; Cycle 2, 9.0 mg/kg (N = 3)): 1.08 h | AUC 0-t ([13]; Cycle 2, 12.0 mg/kg (N = 7)): 4,147,243 ng * h/mL | Cmax ([13]; Cycle 2, 12.0 mg/kg (N = 7)): 230,268 ng/mL | Thalf ([13]; Cycle 2, 12.0 mg/kg (N = 7)): 21.04 h | Tmax ([13]; Cycle 2, 12.0 mg/kg (N = 7)): 1.04 h | increase of mean Cmax and AUC0-t with the dose ([13]; Cycle 2, dose range of 3.0 to 12.0 mg/kg): dose proportional | systemic exposure versus dose ([13]; across all dose levels): increased in a dose proportional manner | accumulation of AB-16B5 ([13]; between Cycle 1 and Cycle 2): No significant accumulation
